Data set [1] concerns the molecule itself. As to the kind of experiment: cryo-EM structure; TolQRA co-expressed, purified by the His tag of TolA in DDM/CHS then LMNG/CHS, reconstituted in MSP1D1 nanodiscs with E. coli total lipid extract; 20 mM Tris pH 7.8, 150 mM NaCl; classes with one, two or three TolA.
Data set [2] has as its target T1, TolA (residues 34–421) (Escherichia coli K12, UniProt P19934 34-421, RED-tris-NTA dye on the His tag).
T1 construct: TolA of Escherichia coli K12, residues 34-421, amplified from genomic DNA into a modified pET28a; also called soluble TolA; TolA with the periplasmic loop TolA_β; source: E. coli BL21(DE3), purified (Ni-NTA column, desalting); not shown: 8x His, C-terminal, kept
T1 sequence (looked up): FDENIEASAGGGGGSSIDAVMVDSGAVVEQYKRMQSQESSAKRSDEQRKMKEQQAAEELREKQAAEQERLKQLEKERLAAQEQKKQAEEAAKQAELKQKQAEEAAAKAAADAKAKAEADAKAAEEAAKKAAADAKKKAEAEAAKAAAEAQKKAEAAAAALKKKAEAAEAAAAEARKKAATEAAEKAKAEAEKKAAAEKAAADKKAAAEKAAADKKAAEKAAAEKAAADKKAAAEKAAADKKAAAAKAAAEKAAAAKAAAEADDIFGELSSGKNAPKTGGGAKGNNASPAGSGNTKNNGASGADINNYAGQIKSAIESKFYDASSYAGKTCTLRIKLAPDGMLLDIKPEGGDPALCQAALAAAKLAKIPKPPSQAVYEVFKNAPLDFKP
In words: MST; TolA labelled with RED-tris-NTA dye, fixed at 50 nM; TolR titrated in 16 points from 150 μM to 4.58 nM; 20 mM HEPES pH 7.8, 150 mM NaCl; 25 °C; Monolith NT.115. To be noted: both partners purified.

For data set [3], the target named is T2, TolA (residues 58–421) (Escherichia coli K12, UniProt P19934 58-421, RED-tris-NTA dye on the His tag).
T2 construct: TolA of Escherichia coli K12, residues 58-421, amplified from genomic DNA into a modified pET28a; also called soluble TolA without TolA_β; source: E. coli BL21(DE3), purified (Ni-NTA column, desalting); not shown: 8x His, C-terminal, kept
T2 sequence (looked up): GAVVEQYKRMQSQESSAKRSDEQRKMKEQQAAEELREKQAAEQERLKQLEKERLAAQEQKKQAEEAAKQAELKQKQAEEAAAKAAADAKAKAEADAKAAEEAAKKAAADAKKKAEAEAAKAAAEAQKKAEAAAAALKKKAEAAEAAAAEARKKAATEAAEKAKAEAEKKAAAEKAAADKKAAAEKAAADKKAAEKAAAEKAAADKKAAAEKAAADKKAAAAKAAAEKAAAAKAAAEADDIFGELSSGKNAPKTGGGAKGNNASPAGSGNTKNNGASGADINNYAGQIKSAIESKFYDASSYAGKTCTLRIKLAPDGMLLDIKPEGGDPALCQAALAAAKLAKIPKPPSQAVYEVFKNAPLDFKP
Described as above. To be noted: both partners purified.

Where “and” joins values, the source holds several entries; their conditions need not be identical. Identical values can stand only once.

B1: TolQ (natural protein, Escherichia coli (strain K12))
chain: MTDMNILDLFLKASLLVKLIMLILIGFSIASWAIIIQRTRILNAAAREAEAFEDKFWSGIELSRLYQESQGKRDNLTGSEQIFYSGFKEFVRLHRANSHAPEAVVEGASRAMRISMNRELENLETHIPFLGTVGSISPYIGLFGTVWGIMHAFIALGAVKQATLQMVAPGIAEALIATAIGLFAAIPAVMAYNRLNQRVNKLELNYDNFMEEFTAILHRQAFTVSESNKG
notes: TolQ of Escherichia coli strain K12; the operon encoding TolQRA was cloned into pTRC99a; no tag on TolQ in this construct; The whole tolQRA operon was cloned, so the whole gene is implied; a minor hexameric class (six TolQ subunits) was also seen; also called TolQ1; TolQ2; source: E. coli C43 (DE3), co-expressed from pTRC99a-TolQR(Strep)A(His), purified as complex (HisTrap + Superdex 200, …)
B1: the “stoichiometry N” value in data set [1] was 5 and 6.

B2: TolR (residues 60–133) (domain or fragment, Escherichia coli K12, UniProt P0ABV6 60-133, looked up)
chain: DNPPVIVEVSGIGQYTVVVEKDRLERLPPEQVVAEVSSRFKANPKTVFLIGGAKDVPYDEIIKALNLLHSAGVK
notes: TolR of Escherichia coli K12, residues 60-133 of the periplasmic domain, amplified from genomic DNA into a modified pET28a; also called TolR^60–133; TolR lacking both β1/α1 and β6; source: E. coli BL21(DE3), purified (Strep-Tactin column, desalting)
On to B2, for which the binding result in data set [2] and in data set [3] was “binds” in each case.
